FireProtDB (doi:10.1016/j.bpc.2020.106337)

B1: non-specific serine/threonine protein kinase, O49003 (parent)
chain: MASKGAGGGGGGHEEPQRPKQQLPRDSRGSLEVFNPSSSSAAVEPPSAFRPAARSASPFIEEATGGIEDVGKATQRAAEWGLVLQTNEQTGRPQGVSARSSGGGGSARSSSDDKAVAGAIPRVSEELRAALSAFQQTFVVSDASRPGHPIMYASAGFFNMTGYTSKEVVGRNCRFLQGSGTDPAEIAKIRQALANGSNYCGRVLNYKKDGTAFWNLLTIAPIKDEEGRVLKFIGMQVEVSKYTEGNKDTVVRPNGLPESLIKYDARQKDQARSSVSELLLAIKNPRSLSESTNSTFKRKSQESVGALTGDRPGKRSSESGSRRNSKSGARTSLQKISEVPERGSKSRKSGLYSLMSLLGMGPGNIEKDMLKPRDEDPLLDSDDERPESFDDELRRKEMRRGIDLATTLERIEKNFVITDPRLPDNPIIFASDSFLQLTEYSREEILGRNCRFLQGPETDRATVRKIRDAIDNQTEVTVQLINYTKSGKKFWNLFHLQPMRDQKGDVQYFIGVQLDGTEHVRDAAEREGVMLIKKTAENIDEAAKELPDANLRPEDLWANHSKVVLPKPHMKDSASWRAIQKVLEGGENIDLKHFRPVKPLGSGDTGSVHLVELLNTGEYFAMKAMDKNVMLNRNKVHRANAEREILDMLDHPFLPTLYASFQTKTHICLITDYYPGGELFLLLDRQPLKVLREDAVRFYAAEVVIALEYLHCQGIIYRDLKPENILLHRDGHISLTDFDLSCLTSCRPQVFLPEEANKKSRRKSRSSPIFFAEPMRASNSFVGTEEYIAPEIITGAGHTSAVDWWALGILLYEMLYGYTPFRGKTRQRTFANILHKDIRFPASISVSLPARQLIYRLLHRDPSNRLGSYEGSNEIKEHPFFRGINWALVRGTAPPKLDAPLFPDDTDKGMGDAAAADTHTDMF

Variants of: B1
Details: Avena sativa; pH 4; Thermal; CD; Sodium acetate; transition: 2; reversible: partially reversible; structure 2V0U; whole UniProt chain shown

Variant | Tm | change of melting temperature, mutant - wild type (higher = more stable)
C450A | 51 °C | 0.7 °C

Same assay, conditions: Avena sativa; pH 4; Thermal; DSC; Sodium acetate; transition: 2; reversible: partially reversible; structure 2V0U; whole UniProt chain shown

Variant | Tm | change of melting temperature, mutant - wild type (higher = more stable)
C450A | 50.7 °C | 2.7 °C

Same assay, conditions: Avena sativa; pH 4; Thermal; fluorescence; Sodium acetate; transition: 2; reversible: partially reversible; structure 2V0U; whole UniProt chain shown

Variant | Tm | change of melting temperature, mutant - wild type (higher = more stable)
C450A | 49.9 °C | 2.8 °C

Same assay, conditions: Avena sativa; pH 7; 20 °C; Urea; fluorescence; sodium phosphate; transition: 2; reversible: no; structure 2V0U; whole UniProt chain shown

Variant | ddG of mutation (higher = less stable) | denaturant m value | denaturant midpoint (higher = more stable) | unfolding free energy
C450A | -0.48 kcal/mol | 1.67 kcal/mol/M | 3.39 M | 6.07 kcal/mol

Same assay, conditions: Avena sativa; pH 7; Thermal; CD; sodium phosphate; transition: 2; reversible: partially reversible; structure 2V0U; whole UniProt chain shown

Variant | Tm | change of melting temperature, mutant - wild type (higher = more stable)
C450A | 64.4 °C | 3.3 °C

Same assay, conditions: Avena sativa; pH 7; Thermal; DSC; sodium phosphate; transition: 2; reversible: partially reversible; structure 2V0U; whole UniProt chain shown

Variant | Tm | change of melting temperature, mutant - wild type (higher = more stable)
C450A | 65 °C | 3.1 °C

Same assay, conditions: Avena sativa; pH 7; Thermal; fluorescence; sodium phosphate; transition: 2; reversible: partially reversible; structure 2V0U; whole UniProt chain shown

Variant | Tm | change of melting temperature, mutant - wild type (higher = more stable)
C450A | 63.6 °C | 3.8 °C

Same assay, conditions: Avena sativa; pH 8; Thermal; CD; sodium phosphate; transition: 2; reversible: partially reversible; structure 2V0U; whole UniProt chain shown

Variant | Tm | change of melting temperature, mutant - wild type (higher = more stable)
C450A | 64.4 °C | 2.6 °C

Same assay, conditions: Avena sativa; pH 8; Thermal; DSC; sodium phosphate; transition: 2; reversible: partially reversible; structure 2V0U; whole UniProt chain shown

Variant | Tm | change of melting temperature, mutant - wild type (higher = more stable)
C450A | 63.8 °C | 3.7 °C

Same assay, conditions: Avena sativa; pH 8; Thermal; fluorescence; sodium phosphate; transition: 2; reversible: partially reversible; structure 2V0U; whole UniProt chain shown

Variant | Tm | change of melting temperature, mutant - wild type (higher = more stable)
C450A | 63.5 °C | 3.4 °C

Same assay, conditions: Avena sativa; pH 9; Thermal; DSC; glycine; transition: 2; reversible: partially reversible; structure 2V0U; whole UniProt chain shown

Variant | Tm | change of melting temperature, mutant - wild type (higher = more stable)
C450A | 66 °C | 4.2 °C

Same assay, conditions: Avena sativa; pH 9; Thermal; fluorescence; glycine; transition: 2; reversible: partially reversible; structure 2V0U; whole UniProt chain shown

Variant | Tm | change of melting temperature, mutant - wild type (higher = more stable)
C450A | 63.5 °C | 2.6 °C
